Experimental data as given in patent US20210261648A1 (published 2021).
Positions count from the first letter of the chain named. In names and notes the source's numbering stands.

T1: FcγRIIb extracellular domain with C-terminal His tag (human, UniProt P31994 43-217)
T1 construct: extracellular domain; also called FcgRIIb
T1 sequence (looked up): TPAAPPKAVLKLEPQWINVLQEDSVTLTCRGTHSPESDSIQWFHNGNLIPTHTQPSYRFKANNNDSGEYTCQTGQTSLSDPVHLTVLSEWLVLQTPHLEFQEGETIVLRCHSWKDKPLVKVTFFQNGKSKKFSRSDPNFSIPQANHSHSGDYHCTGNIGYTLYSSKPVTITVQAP

T2: FcγRIIa type H extracellular domain with C-terminal His tag (human, UniProt P12318 34-217)
T2 construct: extracellular domain; also called FcgRIIaH; FcγRIIa H
T2 sequence (looked up): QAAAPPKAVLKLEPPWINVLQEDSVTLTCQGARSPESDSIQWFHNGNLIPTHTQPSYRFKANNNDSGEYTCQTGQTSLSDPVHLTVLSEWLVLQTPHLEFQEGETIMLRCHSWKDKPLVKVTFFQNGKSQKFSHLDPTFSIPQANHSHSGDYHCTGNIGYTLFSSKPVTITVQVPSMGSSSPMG

T3: FcγRIIb extracellular domain with C-terminal His tag (human, UniProt P31994 43-217)
T3 construct: extracellular domain; For crystals it was expressed with kifunensine and trimmed with Endo F1; also called FcgRIIb; FcγRIIb extracellular region
T3 sequence (looked up): T1 sequence (looked up)

B1: IL6R-BP183/IL6R-L (antibody, human IgG1, kappa)
heavy: QVQLQESGPGLVKPSETLSLTCAVSGHSISHDHAWSWVRQPPGEGLEWIGFISYSGITNYNPSLQGRVTISRDNSKNTLYLQMNSLRAEDTAVYYCARSLARTTAMDYWGEGTLVTVSSASTKGPSVFPLAPSSKSTSGGTAALGCLVKDYFPEPVTVSWNSGALTSGVHTFPAVLQSSGLYSLSSVVTVPSSSLGTQTYICNVNHKPSNTKVDKKVEPKSCDKTHTCPPCPAPDYLGGDSVFLFPPKPKDTLMISRTPEVTCVVVDVSHEDGEVKFNWYVDGVEVHNAKTKPREEQYNSTYRVVSVLTVLHQDWLNGKEYKCKVSNAALPKPIEKTISKAKGQPREPQVYTLPPSRDELTKNQVSLTCLVKGFYPSDIAVEWESNGQPENNYKTTPPVLDSDGSFFLYSKLTVDKSRWQQGNVFSCSVMHEALHNHYTQESLSLSP
light: not shown
B2: IL6R-BP185/IL6R-L (antibody, human IgG1, kappa)
heavy: B1 heavy with G239D
light: not shown
B3: IL6R-BP391/IL6R-L (antibody, human IgG1, kappa)
heavy: B1 heavy with Y236L, G239D, H270D, Y298D, A328K, K332R, I334T
light: not shown
B4: variant resulting from adding S267E to IL6R-BP267/IL6R-L (antibody, human IgG1, kappa)
heavy: B1 heavy with Y236L, G239D, S269E, H270E, A328K, K332A
light: not shown
B5: IL6R-BP189/IL6R-L (antibody, human IgG1, kappa)
heavy: B1 heavy with D235E, Y236L, G239D, H270D
light: not shown
B6: IL6R-BP186/IL6R-L (antibody, human IgG1, kappa)
heavy: B1 heavy with G239D, Y298D
light: not shown
B7: IL6R-BP196/IL6R-L (antibody, human IgG1, kappa)
heavy: B1 heavy with D235E, H270D
light: not shown
B8: IL6R-BP453/IL6R-L (antibody)
heavy: B1 heavy with Y236L, G239D, S269A, H270E, A328K, K332R, P398I
light: not shown
notes: Printed 'P3961'
B9: IL6R-BP500/IL6R-L (antibody, human IgG1, kappa)
heavy: B1 heavy with D235E, Y236L, G239D, V266I, S269A, H270E, Y298D, A328K, K332A
light: not shown
B10: IL6R-BP559/IL6R-L (antibody, human IgG1, kappa)
heavy: B1 heavy with D235E, Y236L, V266I, S269A, H270E, E274D, Y298D, A328K, K332A
light: not shown
B11: IL6R-BP464/IL6R-L (antibody, human IgG1, kappa, name in EU numbering)
heavy: B1 heavy with Y236L, G239D, S269A, H270E, A328K, K332R, P398Y
light: not shown
B12: IL6R-BP187/IL6R-L (antibody, human IgG1, kappa)
heavy: B1 heavy with D235E
light: not shown
B13: IL6R-BP470/IL6R-L (antibody, human IgG1, kappa)
heavy: B1 heavy with Y236L, G239D, H270D, Y298D, A328K, K332R, E335T
light: not shown
B14: variant resulting from adding V266F to IL6R-BP267/IL6R-L (antibody, human IgG1, kappa)
heavy: B1 heavy with Y236L, G239D, V268F, H270E, A328K, K332A
light: not shown
B15: IL6R-BP456/IL6R-L (antibody, human IgG1, kappa, name in EU numbering)
heavy: B1 heavy with Y236L, G239D, S269A, H270E, A328K, K332R, P398M
light: not shown
B16: IL6R-BP541/IL6R-L (antibody, human IgG1, kappa)
heavy: B1 heavy with Y236L, G239D, H270D, K276Q, Y298D, A328K, K332R
light: not shown
B17: IL6R-BP546/IL6R-L (antibody, human IgG1, kappa)
heavy: B1 heavy with Y236L, G239D, H270D, Y298D, A328K, K332R, L360M
light: not shown
B18: IL6R-BP200/IL6R-L (antibody, human IgG1, kappa)
heavy: B1 heavy with G239D, A328D, K332R
light: not shown
B19: variant resulting from adding V264I to IL6R-BP267/IL6R-L (antibody, human IgG1, kappa)
heavy: B1 heavy with Y236L, G239D, V266I, H270E, A328K, K332A
light: not shown
B20: IL6R-BP201/IL6R-L (antibody, human IgG1, kappa)
heavy: B1 heavy with Y236L, G239D, A328K, K332R
light: not shown
B21: IL6R-BP197/IL6R-L (antibody, human IgG1, kappa)
heavy: B1 heavy with G239D, H270D, Y298D, A328D
light: not shown
B22: IL6R-BP459/IL6R-L (antibody, human IgG1, kappa, name in EU numbering)
heavy: B1 heavy with Y236L, G239D, S269A, H270E, A328K, K332R, P398R
light: not shown

Key:
[1] = molecular target: T1, FcγRIIb extracellular domain with …; test: SPR, captured antibody, FcgR analyte
Description: (§1) Relative binding activities were calculated for the results of analyzing interactions with the respective FcγRs according to the following method.

[2] = molecular target: T2, FcγRIIa type H extracellular domain …; test: SPR, captured antibody, FcgR analyte
Description: as §1

[3] = molecular target: T4, FcγRIa extracellular domain with C-terminal His tag (human, UniProt P12314 16-292); test: SPR, captured antibody, FcgR analyte
T4 construct: also called FcgRIa
T4 sequence (P12314 16-292): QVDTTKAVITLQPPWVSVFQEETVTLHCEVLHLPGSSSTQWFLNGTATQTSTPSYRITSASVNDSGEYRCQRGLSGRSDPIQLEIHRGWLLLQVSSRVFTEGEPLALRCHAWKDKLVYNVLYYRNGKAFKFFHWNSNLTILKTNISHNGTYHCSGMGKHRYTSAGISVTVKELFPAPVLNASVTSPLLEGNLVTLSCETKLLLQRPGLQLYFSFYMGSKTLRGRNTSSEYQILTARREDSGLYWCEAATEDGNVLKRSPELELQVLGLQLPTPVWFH
Description: as §1

[4] = molecular target: T3, FcγRIIb extracellular domain with …; test: SPR (Biacore)

Binder	relative binding activity [1]	relative binding activity [2]	relative binding activity [3]	binding result [4]	binding relative to IL6R-B3/IL6R-L [4]
B1	164 relative (IL6R-BF648/IL6R-L = 100)	191 relative (IL6R-BF648/IL6R-L = 100)	83 relative (IL6R-BF648/IL6R-L = 100)		
B2	179 relative (IL6R-BF648/IL6R-L = 100)	446 relative (IL6R-BF648/IL6R-L = 100)	47 relative (IL6R-BF648/IL6R-L = 100)		
B3				binds	
B4				binds	
B5	177 relative (IL6R-BF648/IL6R-L = 100)	183 relative (IL6R-BF648/IL6R-L = 100)	56 relative (IL6R-BF648/IL6R-L = 100)		
B6	175 relative (IL6R-BF648/IL6R-L = 100)	368 relative (IL6R-BF648/IL6R-L = 100)	43 relative (IL6R-BF648/IL6R-L = 100)		
B7	157 relative (IL6R-BF648/IL6R-L = 100)	195 relative (IL6R-BF648/IL6R-L = 100)	89 relative (IL6R-BF648/IL6R-L = 100)		
B8				binds	
B9					≥ 100 times
B10					≥ 100 times
B11				binds	
B12	157 relative (IL6R-BF648/IL6R-L = 100)	205 relative (IL6R-BF648/IL6R-L = 100)	68 relative (IL6R-BF648/IL6R-L = 100)		
B13				binds	
B14				binds	
B15				binds	
B16				binds	
B17				binds	
B18	188 relative (IL6R-BF648/IL6R-L = 100)	517 relative (IL6R-BF648/IL6R-L = 100)	60 relative (IL6R-BF648/IL6R-L = 100)		
B19				binds	
B20	186 relative (IL6R-BF648/IL6R-L = 100)	359 relative (IL6R-BF648/IL6R-L = 100)	57 relative (IL6R-BF648/IL6R-L = 100)		
B21	179 relative (IL6R-BF648/IL6R-L = 100)	294 relative (IL6R-BF648/IL6R-L = 100)	71 relative (IL6R-BF648/IL6R-L = 100)		
B22				binds	
